Columns and labels:
[1] = biological target: SRC (endogenous, colon cancer cell lines) (UniProt P12931 2-536); assay: YAP1 immunoprecipitation from colon cancer cell lysate (SW480), immunoblot
Method: (§1) The indicated colon cancer cell lines were infected with shRNAs targeting YES1 and proliferation (A) or anchorage independent growth (B) was assessed. The results were normalized to cells infected with a control shRNA targeting LacZ. (C) Subcutaneous HCT116 tumors expressing a doxycycline inducible YES1 shRNA were implanted into the cecum of nude mice and after 48 h were treated or not with doxycycline. Tumors were extracted three weeks post doxycycline treatment. (D) YES1 protein levels of tumors in (C). (E) YAP1 was immunoprecipitated from SW480 lystaes and following immunobloting the membrane was stained with the indicated antibodies. […] Following V5 IP the membrane was blotted with a phosphotyrosine antibody. […] (H) Proliferation or anchorage independent growth (I) of Hutu80 cell lines expressing YAP1 Y357F and infected with shRNAs targeting YAP1. (J) YAP1 protein levels of cells in (H) and (I).

[2] = biological target: FYN (UniProt P06241 2-537, limits assumed); assay: as above
Method: as §1

FYN, sequence (P06241 2-537 limits assumed): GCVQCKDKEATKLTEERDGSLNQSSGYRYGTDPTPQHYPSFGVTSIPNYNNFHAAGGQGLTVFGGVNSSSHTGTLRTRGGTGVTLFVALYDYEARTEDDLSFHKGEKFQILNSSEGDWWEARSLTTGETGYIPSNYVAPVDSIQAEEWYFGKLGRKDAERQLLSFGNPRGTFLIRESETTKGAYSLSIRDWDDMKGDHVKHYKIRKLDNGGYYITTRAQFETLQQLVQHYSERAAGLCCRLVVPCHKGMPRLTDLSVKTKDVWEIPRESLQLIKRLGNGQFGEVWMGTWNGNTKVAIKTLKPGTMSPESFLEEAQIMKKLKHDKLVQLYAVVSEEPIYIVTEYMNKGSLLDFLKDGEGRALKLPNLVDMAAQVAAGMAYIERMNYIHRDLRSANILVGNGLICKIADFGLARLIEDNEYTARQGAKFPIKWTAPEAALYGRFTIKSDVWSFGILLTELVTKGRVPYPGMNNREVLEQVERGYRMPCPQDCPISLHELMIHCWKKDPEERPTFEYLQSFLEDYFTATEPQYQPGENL

binding result [1]: no binding
binding result [2]: no binding
B1: YAP1 (65 kd Yes-associated protein) (other, UniProt P46937-3 1-454, looked up)
chain: MDPGQQPPPQPAPQGQGQPPSQPPQGQGPPSGPGQPAPAATQAAPQAPPAGHQIVHVRGDSETDLEALFNAVMNPKTANVPQTVPMRLRKLPDSFFKPPEPKSHSRQASTDAGTAGALTPQHVRAHSSPASLQLGAVSPGTLTPTGVVSGPAATPTAQHLRQSSFEIPDDVPLPAGWEMAKTSSGQRYFLNHIDQTTTWQDPRKAMLSQMNVTAPTSPPVQQNMMNSASAMNQRISQSAPVKQPPPLAPQSPQGGVMGGSNSNQQQQMRLQQLQMEKERLRLKQQELLRQVRPQELALRSQLPTLEQDGGTQNPVSSPGMSQELRTMTTNSSDPFLNSGTYHSRDESTDSGLSMSSYSVPRTPDDFLNSVDEMDTGDTINQSTLPSQQNRFPDYLEAIPGTNVDLGTLEGDGMNIEGEELMPSLQEALSSDILNDMESVLAATKLDKESFLTWL
notes: Endogenous protein in the co-immunoprecipitations from colon cancer cell lysates; also called WT YAP1
